We go through three substances from patent publication US20100317541A1.

The experiment concerns the target α3 subunit isoform of Na, K-ATPase (human) (UniProt P13637). In words: Western blot of control lysate, antibody at 1:2000, chemiluminescence, band density by Alpha DigiDoc 1000. A general note: Immunoblotting shows a protein as a band on a membrane.
Consider “α3 monoclonal antibody from Affinity Bioreagents (Golden, Colo.)”, for which the Average density is 45200.
In turn, “α3 monoclonal antibody from Sigma (St Louis, Mo.)” had an Average density of 44600.
The same measure for “α3 monoclonal antibody from Novus (Littleton, Colo.)”: 41100.
